From paper PMC7039881 come the findings set out here.

Test [1] deals with T1, Myc-tagged human GPAT3 (GPAT3-Myc), Q53EU6.
T1 chain: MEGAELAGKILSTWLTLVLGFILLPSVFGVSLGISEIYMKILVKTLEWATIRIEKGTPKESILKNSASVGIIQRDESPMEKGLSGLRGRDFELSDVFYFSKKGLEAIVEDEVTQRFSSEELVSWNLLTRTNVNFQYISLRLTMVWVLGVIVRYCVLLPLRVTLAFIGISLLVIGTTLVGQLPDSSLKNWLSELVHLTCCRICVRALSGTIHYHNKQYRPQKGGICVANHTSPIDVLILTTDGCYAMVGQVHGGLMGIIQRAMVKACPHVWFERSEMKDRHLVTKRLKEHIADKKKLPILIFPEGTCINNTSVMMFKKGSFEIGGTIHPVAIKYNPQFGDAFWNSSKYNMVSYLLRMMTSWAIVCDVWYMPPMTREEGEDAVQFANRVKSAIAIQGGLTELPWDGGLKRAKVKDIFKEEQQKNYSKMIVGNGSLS
In words: co-immunoprecipitation (anti-FLAG IP, immunoblot quantification). The note with it: chain shown with the change; HEK293 cells; n = 3; parent: est. 1.0; read off a plot. On the technique in general: A western blot detects proteins with antibodies after separation by electrophoresis.

The target in test [2] is N-terminal FLAG-tagged seipin A212P (human) (UniProt Q96G97). Put plainly: co-IP; HEK293 cells co-transfected, lysed 48 h later in ODG lysis buffer (50 mM n-octyl-β-D-glucopyranoside, 50 mM Tris pH 6.8, 150 mM NaCl, 1 mM EDTA); anti-FLAG-agarose beads 2 h at 4 °C, eluted with 3xFLAG peptide; immunoblot for FLAG and Myc.
In test [3] the target is N-terminal FLAG-tagged seipin L91P (human) (UniProt Q96G97). Described as above.
Test [4] concerns the target Seipin-Myc, wild type (human) (UniProt Q96G97). Put plainly: atomic force microscopy; proteins co-isolated on anti-Myc beads from co-transfected tsA 201 cells, eluted and imaged in tapping mode in air; particle volumes and angles.

B1: N-terminal FLAG-tagged wild-type seipin (WT), Q96G97 T78A (protein)
chain: MVNDPPVPALLWAQEVGQVLAGRARRLLLQFGVLFCTILLLLWVSVFLYGSFYYSYMPTVSHLSPVHFYYRTDCDSSATSLCSFPVANVSLTKGGRDRVLMYGQPYRVTLELELPESPVNQDLGMFLVTISCYTRGGRIISTSSRSVMLHYRSDLLQMLDTLVFSSLLLFGFAEQKQLLEVELYADYRENSYVPTTGAIIEIHSKRIQLYGAYLRIHAHFTGLRYLLYNFPMTCAFIGVASNFTFLSVIVLFSYMQWVWGGIWPRHRFSLQVNIRKRDNSRKEVQRRISAHQPGPEGQEESTPQSDVTEDGESPEDPSGTEGQLSEEEKPDQQPLSGEEELEPEASDGSGSWEDAALLTEANLPAPAPASASAPVLETLGSSEPAGGALRQRPTCSSS
Take B1: in test [1], the ratio to parent was 0.84 fold vs WT.

B2: Myc-tagged human GPAT3 (GPAT3-Myc) (enzyme)
chain: T1 chain
Consider B2, for which the reduction of the co-immunoprecipitation against wild-type seipin in test [2] and in test [3] was 50% each time.

B3: FLAG-GPAT3 (enzyme)
chain: T1 chain
Regarding B3, the percent of seipin particles decorated by two GPAT3 particles in test [4] amounted to 10.4%.
